Test results from patent publication US20170281764A1 (JN BIOSCIENCES, published 2017).

Key:
[1] = target: T1, extracellular region of human TIGIT fused to FLAG and GPI (hTIGIT-GPI), on the surface of NS0 cells (human); assay: flow cytometry, competition with hCD155-Fc for NS0-hTIGIT cells
T1 construct: The GPI signal is processed when the anchor is attached; also called NS0-hTIGIT cells
T1 chain: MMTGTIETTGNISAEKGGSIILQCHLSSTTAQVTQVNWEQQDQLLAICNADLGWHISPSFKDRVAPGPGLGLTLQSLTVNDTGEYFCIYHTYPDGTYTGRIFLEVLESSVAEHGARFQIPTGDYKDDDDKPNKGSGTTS
Description: The activity of TIG1, TIG2 and TIG3 to block the interaction between TIGIT and CD155 was analyzed by flow cytometry. NS0-hTIGIT cells were incubated with a sub-saturating concentration of hCD155-Fc in the presence (or absence) of various concentrations of an anti-TIGIT monoclonal antibody as a competitor. Detection of hCD155-Fc bound to NS0-hTIGIT cells was performed with DyLight488-labeled goat anti-human IgG, Fc-specific antibody (Jackson ImmunoResearch, West Grove, Pa.).

[2] = target: T2, human TIGIT on cells (Jurkat-TIGIT cells; human T cells, NK cells and other blood cells) (human, UniProt Q495A1 22-244); assay: cell-based or functional assay
T2 sequence: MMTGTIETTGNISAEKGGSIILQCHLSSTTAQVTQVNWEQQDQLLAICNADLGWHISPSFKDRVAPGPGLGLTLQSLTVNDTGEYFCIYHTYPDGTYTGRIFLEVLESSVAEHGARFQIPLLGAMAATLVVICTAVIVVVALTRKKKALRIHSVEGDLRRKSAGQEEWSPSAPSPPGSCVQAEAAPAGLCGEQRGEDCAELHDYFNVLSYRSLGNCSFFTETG

[3] = target: T3, TIGIT-Fc fusion protein with the F86A mutation (human); assay: ELISA, mutant TIGIT-Fc captured by anti-human Fc, antibody at 200 ng/ml, wild type TIGIT-Fc = 100 %
T3 construct: also called pFCm179-F86A product
Description: (§1) Binding of each of mouse TIG1, TIG2 and TIG3 antibodies to the TIGIT mutants was examined by ELISA. An ELISA plate was coated with 100 μl/well of goat anti-human IgG Fc-specific polyclonal antibody (Sigma-Aldrich), 1/2,000-diluted in PBS at 4° C. overnight, washed with Wash Buffer, and blocked with 200 μl/well ELISA Buffer for 20 min at room temperature. After washing with Wash Buffer, 0.5 μg/ml of transiently expressed TIGIT-Fc fusion proteins, carrying either the wild-type TIGIT or one of the six TIGIT mutants, in ELISA Buffer (100 μl/well) were applied to the ELISA plate in duplicates for incubation at room temperature for 30 min. As a negative control, culture supernatants of untransfected HEK293 cells were used. After washing with Wash Buffer, 100 μl/well of 200 ng/ml of a test antibody (TIG1, TIG2 or TIG3) in ELISA Buffer (100 μl/well) was applied. After incubating the ELISA plate for 30 min at room temperature and washing with Wash Buffer, bound antibodies were detected using 100 μl/well of HRP-conjugated goat anti-mouse kappa chain polyclonal antibody (Bethyl Laboratories, Montgomery, Tex.), 1/2,000-diluted in ELISA Buffer. After incubating the plate for 0.5 hr at room temperature and washing with Wash Buffer, color development was initiated by adding 100 μl/well of ABTS substrate (Sigma-Aldrich) and stopped with 100 μl/well of 2% oxalic acid. Absorbance was read at 405 nm.
(§2) For each of TIG1, TIG2 and TIG3, the relative binding to each TIGIT mutant was calculated in the following formula. The average absorbance with the wild type TIGIT-Fc fusion proteins [Abs A] was normalized to 100%, and the average absorbance with culture supernatants of untransfected HEK293 cells [Abs B] was normalized to 0%. The average absorbance with a mutant TIGIT-Fc fusion protein [Abs C] was normalized by the following formula: 100×([Abs C]−[Abs B])/([Abs A]−[Abs B]). […] None of the TIGIT mutants used in this assay abolished the binding of TIG2 and TIG3 to TIGIT.

[4] = target: T4, TIGIT-Fc fusion protein with the D51A mutation (human); assay: as above
T4 construct: also called pFCm179-D51A product
Description: as §1, §2

[5] = target: T5, TIGIT-Fc fusion protein with the Q35A mutation (human); assay: as above
T5 construct: the entry already carries the mutation; also called pFCm179-Q35A product
Description: as §1, §2

[6] = target: T6, TIGIT-Fc fusion protein with the N49A mutation (human); assay: as above
T6 construct: also called pFCm179-N49A product
Description: as §1, §2

[7] = target: TIGIT-Fc fusion protein with the E39A mutation (printed Q39A in the text) (human); assay: as above
Description: as §1, §2

[8] = target: T7, TIGIT-Fc fusion protein with the N37A mutation (human); assay: as above
T7 construct: also called pFCm179-N37A product
Description: as §1, §2

[9] = target: T8, extracellular region of human TIGIT fused to the Fc region of human immunoglobulin gamma-1 chain (hTIGIT-Fc) (human); assay: ELISA, hybridoma screening
T8 construct: also called human TIGIT-Fc fusion protein; wild-type TIGIT-Fc
Source text: Mouse antibodies secreted in culture supernatants of hybridoma cells were subjected to a series of screening to identify the antibodies with the following properties: (1) binding to purified hTIGIT-Fc fusion protein, (2) binding to NS0-hTIGIT cells, (3) non-binding to NS0 cells, (4) binding to CD3+ T cells derived from phytohemagglutinin-treated human peripheral blood mononuclear cells and (5) blocking of the binding of hCD155-Fc fusion protein to NS0-hTIGIT cells. The first property to bind to hTIGIT-Fc was tested by ELISA using HRP-conjugated goat antibodies against mouse kappa and lambda light chains (SouthernBiotech, Birmingham, Ala.) for identification of mouse anti-TIGIT antibodies. The second, third and fourth properties were examined by flow cytometry using PE-labeled goat anti-mouse gamma chain antibody (SouthernBiotech) for detection of cell-bound mouse antibodies. The fifth property was analyzed by flow cytometry as described below. […] TIG1, TIG2 and TIG3 monoclonal antibodies were purified from culture supernatant of hybridoma cells by protein A column chromatography as described above. The isotypes of TIG1, TIG2 and TIG3 are mouse IgG2b/kappa, IgG2a/kappa and IgG2a/kappa, respectively.

[10] = target: T4, TIGIT-Fc fusion protein with the D51A …; assay: ELISA on captured mutant TIGIT-Fc
Description: as §1, §2

[11] = target: T5, TIGIT-Fc fusion protein with the Q35A …; assay: ELISA on captured mutant TIGIT-Fc
Description: as §1, §2

[12] = target: T7, TIGIT-Fc fusion protein with the N37A …; assay: ELISA on captured mutant TIGIT-Fc
Description: as §1, §2

B1: TIG1 mouse anti-human TIGIT monoclonal antibody (antibody, mouse IgG2b, V domains shown)
VH: DVQLVESGGGLVQPGGSRKLSCAASGFTFSNFGMHWVRQAPEKGLEWVAFISSGSSSIYYADTVKGRFTISRDNPKNTLFLQMTSLRSEDTAMYYCARMRLDYYAMDYWGQGTSVTVSS
VL: DVQITQSPSYLAASPGETITINCRASKSISKYLAWYQEKPGKTNKLLIYSGSTLQSGIPSRFSGSGSGTDFTLTISSLEPEDFAMYYCQQHNEYPWTFGGGTKLEIK
notes: also called anti-TIGIT antibody (TIG1)
- IC50 [1]: 0.049 µg/mL
- enhancement of NK cell mediated natural cytotoxicity of K562 cells [2]: 2 fold
- Relative binding to TIGIT (%) [3]: 49.5%
- Relative binding to TIGIT (%) [4]: 1.8%
- Relative binding to TIGIT (%) [5]: -0.1%
- Relative binding to TIGIT (%) [6]: 0.5%
- Relative binding to TIGIT (%) [7]: 71.1%
- Relative binding to TIGIT (%) [8]: 0.8%
- binding result [9]: binds
- binding result [10]: no binding
- binding result [11]: no binding
- binding result [12]: no binding
